In publication doi:10.1101/2023.06.05.543739:

Legend:
Assay in all cases: ITC
PER2 1132-1252 = PER2 1132-1252 (UniProt O54943)
[1] = molecular target: hRbBP5 (Isoform 2) (human)
PER1 1013-1291 = PER1 1013-1291 (UniProt O35973)
UniProt O35973, sequence (O35973 1013-1291): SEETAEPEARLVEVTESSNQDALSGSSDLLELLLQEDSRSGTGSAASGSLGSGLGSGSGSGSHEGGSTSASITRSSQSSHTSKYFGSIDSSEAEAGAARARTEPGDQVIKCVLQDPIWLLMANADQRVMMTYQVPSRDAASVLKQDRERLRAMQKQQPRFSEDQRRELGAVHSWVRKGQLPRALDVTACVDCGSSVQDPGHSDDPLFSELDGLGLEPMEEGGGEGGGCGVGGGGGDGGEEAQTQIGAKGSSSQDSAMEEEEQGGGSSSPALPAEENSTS

UniProt O54943, sequence (O54943 1132-1252): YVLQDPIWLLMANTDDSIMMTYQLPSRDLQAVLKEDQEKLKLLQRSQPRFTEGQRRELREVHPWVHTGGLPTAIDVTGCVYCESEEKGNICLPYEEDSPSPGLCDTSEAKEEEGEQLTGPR

WDR5 23-334 (from UniProt P61964 23-334) (domain or fragment; other documents disagree on this pair)
Kd (PER2 1132-1252): 50 µM

WDR5 23-334 N225A (from UniProt P61964 23-334) (domain or fragment)
Kd [1]: 71 µM

WDR5 23-334 N225A (from UniProt P61964 23-334) (domain or fragment; other documents disagree on this pair)
Kd (PER1 1013-1291): 7 µM
